# Data taken from IntAct's records for PubMed 19196961.
# B1: E3 ubiquitin-protein ligase CHIP (Homo sapiens), Q9UNE7-1 (parent)
# chain: MKGKEEKEGGARLGAGGGSPEKSPSAQELKEQGNRLFVGRKYPEAAACYGRAITRNPLVAVYYTNRALCYLKMQQHEQALADCRRALELDGQSVKAHFFLGQCQLEMESYDEAIANLQRAYSLAKEQRLNFGDDIPSALRIAKKKRWNSIEERRIHQESELHSYLSRLIAAERERELEECQRNHEGDEDDSHVRAQQACIEAKHDKYMADMDELFSQVDEKRKKRDIPDYLCGKISFELMREPCITPSGITYDRKDIEEHLQRVGHFDPVTRSPLTQEQLIPNLAMKEVIDAFISENGWVEDY
# Variants of: B1
# Conditions: with lrrk2_human LRRK2, Q5S007
# lrrk2_human LRRK2, Q5S007, sequence (Q5S007 whole entry): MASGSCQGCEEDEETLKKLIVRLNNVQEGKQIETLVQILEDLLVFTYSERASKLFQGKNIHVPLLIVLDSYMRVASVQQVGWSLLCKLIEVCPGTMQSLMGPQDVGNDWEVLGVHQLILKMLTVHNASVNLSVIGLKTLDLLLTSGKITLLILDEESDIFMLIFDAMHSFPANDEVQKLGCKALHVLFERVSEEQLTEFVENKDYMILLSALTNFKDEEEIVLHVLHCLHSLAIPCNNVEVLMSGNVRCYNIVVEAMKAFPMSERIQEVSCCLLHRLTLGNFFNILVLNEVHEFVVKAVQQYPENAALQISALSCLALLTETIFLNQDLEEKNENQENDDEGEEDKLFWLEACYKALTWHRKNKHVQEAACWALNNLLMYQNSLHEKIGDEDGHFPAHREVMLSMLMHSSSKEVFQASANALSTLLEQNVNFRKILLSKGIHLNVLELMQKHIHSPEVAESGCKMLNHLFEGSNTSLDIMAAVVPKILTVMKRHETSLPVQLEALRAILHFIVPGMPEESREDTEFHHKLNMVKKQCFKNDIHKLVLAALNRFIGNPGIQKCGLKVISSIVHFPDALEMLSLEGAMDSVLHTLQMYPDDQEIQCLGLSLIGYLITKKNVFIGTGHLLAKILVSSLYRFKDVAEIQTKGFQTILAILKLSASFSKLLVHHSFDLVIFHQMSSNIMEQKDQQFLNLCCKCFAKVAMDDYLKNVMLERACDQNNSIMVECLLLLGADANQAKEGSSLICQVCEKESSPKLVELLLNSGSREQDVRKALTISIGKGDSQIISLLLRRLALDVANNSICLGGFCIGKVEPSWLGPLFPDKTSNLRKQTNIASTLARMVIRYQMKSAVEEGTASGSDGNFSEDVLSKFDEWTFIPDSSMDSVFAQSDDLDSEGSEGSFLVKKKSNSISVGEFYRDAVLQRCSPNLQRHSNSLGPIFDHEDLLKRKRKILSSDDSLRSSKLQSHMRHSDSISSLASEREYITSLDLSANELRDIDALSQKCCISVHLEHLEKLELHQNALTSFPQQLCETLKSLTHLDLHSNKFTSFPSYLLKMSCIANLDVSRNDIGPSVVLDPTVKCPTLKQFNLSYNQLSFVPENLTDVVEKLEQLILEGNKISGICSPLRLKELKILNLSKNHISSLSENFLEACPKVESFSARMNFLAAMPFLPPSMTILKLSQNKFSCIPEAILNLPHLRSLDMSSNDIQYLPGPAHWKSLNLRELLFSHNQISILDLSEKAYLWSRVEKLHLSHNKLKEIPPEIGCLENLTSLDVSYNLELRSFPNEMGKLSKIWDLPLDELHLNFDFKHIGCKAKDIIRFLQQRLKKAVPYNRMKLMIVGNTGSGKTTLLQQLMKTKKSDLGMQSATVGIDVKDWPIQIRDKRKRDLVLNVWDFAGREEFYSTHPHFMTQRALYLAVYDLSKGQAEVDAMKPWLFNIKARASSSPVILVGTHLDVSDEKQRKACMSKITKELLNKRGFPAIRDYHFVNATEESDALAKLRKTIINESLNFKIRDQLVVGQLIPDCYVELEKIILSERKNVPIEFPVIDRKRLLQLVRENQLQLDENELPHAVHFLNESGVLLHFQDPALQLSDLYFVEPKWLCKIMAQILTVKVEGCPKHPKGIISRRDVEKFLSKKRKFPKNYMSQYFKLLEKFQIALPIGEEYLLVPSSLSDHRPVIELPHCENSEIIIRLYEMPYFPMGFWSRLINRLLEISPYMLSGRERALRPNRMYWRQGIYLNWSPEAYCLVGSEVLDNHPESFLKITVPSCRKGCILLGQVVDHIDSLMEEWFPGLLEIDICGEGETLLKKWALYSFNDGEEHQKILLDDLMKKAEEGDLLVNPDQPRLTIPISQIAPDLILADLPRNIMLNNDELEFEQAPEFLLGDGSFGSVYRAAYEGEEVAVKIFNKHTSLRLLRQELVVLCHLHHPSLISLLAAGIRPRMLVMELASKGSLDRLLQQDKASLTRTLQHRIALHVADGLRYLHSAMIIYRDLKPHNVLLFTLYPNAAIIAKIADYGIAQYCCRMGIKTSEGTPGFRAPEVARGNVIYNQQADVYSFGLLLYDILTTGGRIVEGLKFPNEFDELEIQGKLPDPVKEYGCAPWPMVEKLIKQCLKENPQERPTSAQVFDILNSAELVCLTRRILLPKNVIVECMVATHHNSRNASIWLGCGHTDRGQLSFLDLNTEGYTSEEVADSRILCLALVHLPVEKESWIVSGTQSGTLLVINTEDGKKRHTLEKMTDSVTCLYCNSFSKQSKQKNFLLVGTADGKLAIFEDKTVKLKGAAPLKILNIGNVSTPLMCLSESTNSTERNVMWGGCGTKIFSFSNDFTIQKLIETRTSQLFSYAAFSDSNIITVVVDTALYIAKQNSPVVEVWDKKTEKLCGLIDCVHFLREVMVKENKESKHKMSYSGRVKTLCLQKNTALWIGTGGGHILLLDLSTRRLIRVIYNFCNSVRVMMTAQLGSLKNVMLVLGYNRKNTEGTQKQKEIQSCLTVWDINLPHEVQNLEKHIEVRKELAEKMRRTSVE
row,effect of a mutation on the interaction,Variant
1,disrupting interaction,K30C
